The results in this text go back to article PMC9313494 (2022).

For the assay, the target named is Lys-Nle peptide (norleucine (Nle) residues (Nle12 named); D-residues (D-Lys1, D-Lys8 named); terminal thiol group). Put plainly: SPR.

B1: bone morphogenetic protein-2 (BMP-2) (ligand)
chain: QAKHKQRKRLKSSCKRHPLYVDFSDVGWNDWIVAPPGYHAFYCHGECPFPLADHLNSTNHAIVQTLVNSVNSKIPKACCVPTELSAISMLYLDENEKVVLKNYQDMVVEGCGCR
Regarding B1, the koff (commonly a measure of how fast the partners let go of each other) was 0.00973 s⁻¹.
